From US20200362033A1 (Daiichi Sankyo, published 2020)
Residue numbers refer to the chain shown, from its start.

T1: human CD147 variant 2 expressed on CHO-K1 cells (pcDNA-DEST40-CD147v2) (human, UniProt P35613 140-385)
T1 construct: also called CHO-K1-hCD147v2; human CD147 expressing CHO-K1 cells
T1 sequence: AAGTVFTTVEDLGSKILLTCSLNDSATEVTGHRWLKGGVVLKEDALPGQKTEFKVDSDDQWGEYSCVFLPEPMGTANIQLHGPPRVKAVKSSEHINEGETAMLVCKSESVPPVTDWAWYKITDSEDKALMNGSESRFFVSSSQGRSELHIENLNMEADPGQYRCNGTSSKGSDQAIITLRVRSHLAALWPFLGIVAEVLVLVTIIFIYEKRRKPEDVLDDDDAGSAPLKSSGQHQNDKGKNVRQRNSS

T2: human-cynomolgus monkey chimeric CD147 hCD147-mu3, on CHO-K1 cells (human, UniProt P35613 140-385)
T2 construct: also called hCD147-mu3_pcDNA3.1; CD147 with mu3 mutation
T2 chain: T1 sequence with A45T, E52D, K54E, Q60L

B1: LN22R8 (antibody, V domains shown)
VH: QIQLVQSGPELKKPGETVKISCKASGYTFTNYGMNWVKQAPGKGLKWMGWINTYTGEPTYADDFKGRFAFSLETSASTAYLQINNLKNEDTATYFCARGGYGNYGAGAMDYWGQGTSVTVSS
VL: DIQMTQSPSSLSASLGERVSLTCRASLEISGFLSWLQQKPDGTIKRLIYAASILDSGVPKRFSGSRSGSDYSLTISSLESEDFADYYCLQYASYPWTFGGGTKLEIKR
notes: also called mouse anti-human CD147 antibody (LN22R8)
B2: 2P10F2 (antibody, V domains shown)
VH: EVQLQESGPGLVKPSQSLSLTCSVTGYSITSNYWGWIRKFPGNKMEWMGCITYSGGTSYNPSLKSRISITRDTSKNQFFLQLNSVTTEDTATYYCASSYTSGDVDYWGQGVMVTVSS
VL: DIQMTQSPASLSASLGETVSIECLASEGISNSLAWYQQKPGKSPQLLIYGASSLQDGVPSRFSGSGSGTQYSLKISGMQPEDEGVYYCQQGYKYPFTFGSGTKLEIKR
notes: also called 2P10F2 rat antibody

Experiments:
[1] = target: T1, human CD147 variant 2 expressed on …; assay: flow cytometry, CHO-K1 cells transfected with human CD147v2, antibody 10 µg/ml, anti-mouse IgG-FITC (Example 1)-8)
Excerpt: In the graphs, the vertical axis represents the number of cells, and the horizontal axis represents the intensity of fluorescence signals.

[2] = target: T2, human-cynomolgus monkey chimeric CD147 …; assay: flow cytometry, transfected CHO-K1 cells
Description: Samples with an increase in fluorescence signals of 10 times or more as compared with those in the control cells that were not treated with primary antibodies were determined to be binding positive (+). Samples with a partial increase in fluorescence signals of less than 10 times were determined to be binding slightly positive (±). Samples with no increase in fluorescence signals as compared with those in the control cells that were not treated with primary antibodies were determined to be binding negative (−).

Binder | binding result [1] | binding result [2]
B1 | binds | no binding (tested: 10 µg/ml)
B2 | – | no binding (tested: 10 µg/ml)
